The values that follow are results of earlier work, collected in article PMC6929323.

One may read the Kd as a measure of binding affinity in units of concentration.

For the data set, the target named is UFD1L-NPLOC4 (Homo sapiens) (UniProt Q92890). Put plainly: ITC.
UniProt Q92890, sequence (Q92890 whole entry, chain 1 of 2): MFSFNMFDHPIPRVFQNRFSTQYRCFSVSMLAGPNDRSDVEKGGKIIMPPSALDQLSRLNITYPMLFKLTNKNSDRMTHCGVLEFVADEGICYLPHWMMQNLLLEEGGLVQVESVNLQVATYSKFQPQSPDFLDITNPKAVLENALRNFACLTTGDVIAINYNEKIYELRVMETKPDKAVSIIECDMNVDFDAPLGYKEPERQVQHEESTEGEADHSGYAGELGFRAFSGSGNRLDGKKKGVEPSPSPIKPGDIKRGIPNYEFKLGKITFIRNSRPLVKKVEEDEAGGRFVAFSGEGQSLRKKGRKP
UniProt Q92890, sequence (Q8TAT6 2-608, chain 2 of 2, further chain): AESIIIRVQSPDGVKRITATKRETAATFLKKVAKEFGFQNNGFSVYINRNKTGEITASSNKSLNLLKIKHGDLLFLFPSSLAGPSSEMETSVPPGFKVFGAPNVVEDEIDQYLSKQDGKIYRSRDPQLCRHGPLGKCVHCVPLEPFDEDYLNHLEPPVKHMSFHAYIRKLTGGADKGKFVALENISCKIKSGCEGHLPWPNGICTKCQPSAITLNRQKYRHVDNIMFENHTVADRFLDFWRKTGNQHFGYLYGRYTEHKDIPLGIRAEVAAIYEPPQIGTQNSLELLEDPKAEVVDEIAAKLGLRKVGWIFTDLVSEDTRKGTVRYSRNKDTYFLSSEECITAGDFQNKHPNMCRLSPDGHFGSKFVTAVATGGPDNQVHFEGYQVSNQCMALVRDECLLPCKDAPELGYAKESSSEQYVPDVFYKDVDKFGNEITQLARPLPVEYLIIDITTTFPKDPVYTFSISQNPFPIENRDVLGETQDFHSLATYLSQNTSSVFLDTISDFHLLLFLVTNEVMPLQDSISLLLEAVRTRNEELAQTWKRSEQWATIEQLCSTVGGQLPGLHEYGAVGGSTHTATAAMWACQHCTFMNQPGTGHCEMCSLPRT

With p97 (from UniProt P55072), the dissociation constant Kd is 1700 nM.
